Laboratory results as given in the supplement of paper PMC9112550, “Optimization of the antimicrobial peptide Bac7 by deep mutational scanning” (BMC Biology, 2022).

Each sequence was assayed on Escherichia coli TOP10 (assay: shrunken log2 fold change of peptide-encoding DNA abundance (4.5 h post-induction vs induction); higher = less antimicrobial activity (less host growth inhibition)). Conditions: time post-induction: 4.5 h; library: site-saturation at positions 5, 18, 19, 20.
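Note: peptides expressed intracellularly from a pBAD plasmid library in pooled LB shake-flask culture, induced with 0.3% L-arabinose, DNA abundance read by NGS, three biological replicates, DESeq2 with apeglm shrinkage.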

Sequence	shrunken log2 fold change
RRIRTRPPRLPRPRPRPLCMPRP	-0.385
RRIRNRPPRLPRPRPRPTHHPRP	-0.0659
RRIRYRPPRLPRPRPRPAISPRP	-0.149
RRIRRRPPRLPRPRPRPKEVPRP	0.195
RRIRMRPPRLPRPRPRPVIVPRP	-0.313
RRIRVRPPRLPRPRPRPIKSPRP	-0.184
RRIRLRPPRLPRPRPRPPQYPRP	-0.0075
RRIRKRPPRLPRPRPRPFSRPRP	0.238
RRIRERPPRLPRPRPRPTRWPRP	0.353
RRIRVRPPRLPRPRPRPSLPPRP	-0.226
RRIRYRPPRLPRPRPRPVKAPRP	-0.0854
RRIRFRPPRLPRPRPRPSIQPRP	-0.0528
RRIRTRPPRLPRPRPRPLCYPRP	-0.452
RRIRTRPPRLPRPRPRPDMCPRP	-0.0287
RRIRERPPRLPRPRPRPKNMPRP	-0.479
RRIRVRPPRLPRPRPRPPSTPRP	0.238
RRIRMRPPRLPRPRPRPDNPPRP	0.0534
RRIRGRPPRLPRPRPRPTTYPRP	0.214
RRIRSRPPRLPRPRPRPYSVPRP	-0.582
RRIRDRPPRLPRPRPRPHADPRP	-0.0841
RRIRRRPPRLPRPRPRPLLSPRP	0.148
RRIRSRPPRLPRPRPRPNGSPRP	-0.21

Sequence	shrunken log2 fold change
RRIRCRPPRLPRPRPRPHDKPRP	-0.363
RRIRYRPPRLPRPRPRPCPMPRP	-0.476
RRIRKRPPRLPRPRPRPPWVPRP	0.221
RRIRFRPPRLPRPRPRPNYGPRP	-0.125
RRIRLRPPRLPRPRPRPYSNPRP	-0.212
RRIRRRPPRLPRPRPRPLKGPRP	-0.0966
RRIRTRPPRLPRPRPRPVCWPRP	0.304
RRIRKRPPRLPRPRPRPSEWPRP	0.212
RRIRGRPPRLPRPRPRPCYVPRP	-0.0858
RRIRNRPPRLPRPRPRPFSRPRP	-0.000753
RRIRSRPPRLPRPRPRPCKIPRP	-0.177
RRIRLRPPRLPRPRPRPRTCPRP	-0.258
RRIRNRPPRLPRPRPRPQQVPRP	-0.0087
RRIRGRPPRLPRPRPRPPHTPRP	0.985
RRIRKRPPRLPRPRPRPCGKPRP	0.00875
RRIRLRPPRLPRPRPRPGCVPRP	0.182
RRIRTRPPRLPRPRPRPGWRPRP	0.69
RRIRLRPPRLPRPRPRPIKTPRP	-0.0953
RRIRTRPPRLPRPRPRPFFQPRP	0.0474
RRIRRRPPRLPRPRPRPTEEPRP	1.07
RRIRLRPPRLPRPRPRPHQTPRP	0.001
RRIRERPPRLPRPRPRPTRMPRP	0.084

Sequence	shrunken log2 fold change
RRIRNRPPRLPRPRPRPQACPRP	-0.0265
RRIRYRPPRLPRPRPRPLFMPRP	-1.24
RRIRVRPPRLPRPRPRPSLDPRP	-0.0324
RRIRCRPPRLPRPRPRPGRWPRP	0.434
RRIRPRPPRLPRPRPRPVMQPRP	0.136
RRIRQRPPRLPRPRPRPLKNPRP	-0.237
RRIRRRPPRLPRPRPRPHRAPRP	0.243
RRIRSRPPRLPRPRPRPGVRPRP	-0.0323
RRIRFRPPRLPRPRPRPWGCPRP	-0.225
RRIRIRPPRLPRPRPRPHYHPRP	-1.47
RRIRKRPPRLPRPRPRPKCLPRP	0.118
RRIRQRPPRLPRPRPRPSLLPRP	-0.216
RRIRRRPPRLPRPRPRPSYCPRP	-0.0727
RRIRCRPPRLPRPRPRPVRCPRP	-0.00859
RRIRPRPPRLPRPRPRPWTLPRP	0.104
RRIRLRPPRLPRPRPRPRVVPRP	-0.0437
RRIRARPPRLPRPRPRPVISPRP	0.0798
RRIRWRPPRLPRPRPRPVAAPRP	0.855
RRIRIRPPRLPRPRPRPSRGPRP	0.242
RRIRMRPPRLPRPRPRPMFFPRP	-0.0106
RRIRARPPRLPRPRPRPHRDPRP	0.0774
RRIRFRPPRLPRPRPRPRCTPRP	0.0551

Sequence	shrunken log2 fold change
RRIRGRPPRLPRPRPRPTWNPRP	0.359
RRIRNRPPRLPRPRPRPSMEPRP	-0.118
RRIRWRPPRLPRPRPRPIFLPRP	-0.509
RRIRRRPPRLPRPRPRPNWYPRP	-0.197
RRIRHRPPRLPRPRPRPCQIPRP	-0.0122
RRIRCRPPRLPRPRPRPVGSPRP	0.0443
RRIRSRPPRLPRPRPRPGTCPRP	0.148
RRIRQRPPRLPRPRPRPGINPRP	-0.296
RRIRARPPRLPRPRPRPPPNPRP	1.35
RRIRRRPPRLPRPRPRPDWDPRP	-0.0829
RRIRPRPPRLPRPRPRPNAFPRP	-0.0225
RRIRCRPPRLPRPRPRPEQTPRP	0.0662
RRIRVRPPRLPRPRPRPQMKPRP	-0.0794
RRIRVRPPRLPRPRPRPQAKPRP	0.0434
RRIRVRPPRLPRPRPRPVGVPRP	0.321
RRIRQRPPRLPRPRPRPEMSPRP	0.161
RRIRPRPPRLPRPRPRPDYVPRP	-0.343
RRIRSRPPRLPRPRPRPIKAPRP	0.0326
RRIRVRPPRLPRPRPRPRGRPRP	0.197
RRIRQRPPRLPRPRPRPSQRPRP	-0.523
RRIRIRPPRLPRPRPRPHGWPRP	0.0102
RRIRERPPRLPRPRPRPPNAPRP	0.186

Sequence	shrunken log2 fold change
RRIRYRPPRLPRPRPRPSCCPRP	-0.472
RRIRDRPPRLPRPRPRPECIPRP	0.0163
RRIRLRPPRLPRPRPRPWVQPRP	-0.118
RRIRYRPPRLPRPRPRPLCGPRP	-0.557
RRIRRRPPRLPRPRPRPNGCPRP	0.00793
RRIRFRPPRLPRPRPRPTSPPRP	0.194
RRIRPRPPRLPRPRPRPYNRPRP	-0.0087
RRIRGRPPRLPRPRPRPYGWPRP	-0.0363
RRIRDRPPRLPRPRPRPKMTPRP	0.093
RRIRVRPPRLPRPRPRPDWSPRP	-0.316
RRIRHRPPRLPRPRPRPQHKPRP	-0.494
RRIRHRPPRLPRPRPRPTTNPRP	-0.348
RRIRDRPPRLPRPRPRPPVTPRP	-0.0696
RRIRTRPPRLPRPRPRPPCTPRP	-0.0757
RRIRFRPPRLPRPRPRPCREPRP	-0.0892
RRIRTRPPRLPRPRPRPKSEPRP	-0.144
RRIRKRPPRLPRPRPRPEWIPRP	0.454
RRIRMRPPRLPRPRPRPFTFPRP	-0.096
RRIRNRPPRLPRPRPRPQIKPRP	-0.479
RRIRRRPPRLPRPRPRPYGFPRP	-0.298
RRIRMRPPRLPRPRPRPWDRPRP	0.158
